Test results reported in patent publication US20240294651A1 (KYMAB, published 2024).
Numbering of substitutions follows the chain as printed.

B1: CL-82558 Fab fragment (Fab, V domains shown)
VH: QVQLQESGPGLVKPSQTLSLTCTVSGGSISSGGYYWSWIRQVPGKGLEWIGYISYSGNTFYSPSLKSRVTISVDTSENKFSLRLTSVTAADTAVYFCARDRRIPMLRGVKGYYYGLDVWGQGTTVTVSS
VL: DIVMTQSPLSLPVIPGEPASISCRSSQSLLHRNGYKYLDWYLQKPGQSPQLLIYLGSNRASGVPARFSGSGSGTDFTLKISRVEAEDVGVYYCMQALQTPWTFGQGTKVEIK
notes: Purified Fab fragment
B2: CL-82517 (antibody, human IgG4 S228P, kappa, V domains shown)
VH: EVQLVESGGGLVKPGGSLRLSCAASGFTFSSYSMNWVRQAPGKGLEWVSSISSSRRYIYYADSVKGRFTISRDNAKNSLYLQMNSLRAEDTAVYYCARAYGQVAPYYYYGMDVWGQGTTVTVSS
VL: AIQLTQSPSSLSASVGDRVTITCRASQGISSALAWYQQKPGKAPKLLIYDASSLESGVPSRFSGSGSGTDFTLTISSLQPEDFATYYCQQFNSYPLTFGGGTKVEIKR
notes: Tested in human IgG4-PE format
B3: CL-82495 (antibody, human IgG4 S228P, kappa, V domains shown)
VH: QVQLVESGGGVVQPGRSLRLSCEASGFTLSSYGMHWVRQAPGKGLEWVAVIWNDGSNKYSADSVKGRFTISRDNSKNTLYLQMNRLRAEDTAVYYCARGGGYYGSGSHYRGYYYYGMDVWGQGTTVTVSS
VL: DIQMTQSPSSLSASVGDRVTITCRASQGIRNDLGWYQQKPGKAPKRLIYAASSLQSGVPSRFSGSGSGTEFTLTISSLQPEDFATYYCLQHNSYPWTFGQGTKVEIKR
notes: as for B2
B4: CL-148712 (antibody, human IgG4 S228P, kappa, V domains shown)
VH: EVQLVESGGDLVQPGGSLRLSCAASGFTFYSYAMNWVRQAPGKGLKWVSGISGSGDITYYADSVKGRFTISRDNSKNTLYLQMHSLRAEDTAVYYCAKGQLERRYYKYYGMDVWGQGTTVTVSS
VL: B3 VL with S26N, A50G, Q55K, H91Q, W96L, Q100G
B5: CL-82562 (antibody, human IgG4 S228P, kappa, V domains shown)
VH: QVQLVESGGGVVQPGRSLRLSCTASGFTFSNYAMHWVRQAPGKGLEWVAVISYDGSNKYCADSVKGRFTISRDNSKNTLYLQMNSLRAEDTAVYYCARGPLARRHYYYYGMDVWGQGTTVTVSS
VL: B3 VL with A50G, W96R
notes: as for B2
B6: CL-82523 (antibody, human IgG4 S228P, kappa, V domains shown)
VH: EVQLVESGGGLVQPGGSLRLSCAASGFTFSNYAMSWVRQAPRKGLEWVSVISGSGGRTNYAGSVKGRFSITRDNSKNTLYLQMNSLRAEDTAVYYCVKGQLERRYYYYYGMDVWGQGITVTVSS
VL: B3 VL with W96L, Q100G
notes: as for B2
B7: CL-82473 (antibody, human IgG4 S228P, kappa, V domains shown)
VH: QVQLVESGGGVVQPGRSLRLSCAASGFTFSSYGMHWVRQAPGKGLEWVTVILYGGSNKYYADSVKGRFTISRDNSKNTLYLQMNSLRAEDTAVYYCARGMLTYYYSSGFDYWGQGTLVTVSS
VL: not shown
notes: as for B2
B8: CL-82580 (antibody, human IgG4 S228P, kappa, V domains shown)
VH: QVQLVQSGAEVKKPGASVKVSCRASGYTFTNYDINWVRQATGQGLEWMGWMNPNSGNTGYAQKFQGRVTMTRNTSISAAYMELSSLRSEDTAVYYCARGRGYYGSGSRYRGYYYYGMDVWGQGTTVTVSS
VL: not shown
notes: as for B2
B9: CL-82551 (antibody, human IgG4 S228P, kappa, V domains shown)
VH: B8 VH with R23K, N31S, A78T, R108H, M117L
VL: DIQMTQSPSTLSASVGDRVTITCRASQSISSWLAWYQQKPGKAPKVLIYKASSLKSGVPSRFSGSGSGTEFTLTVSSLQPDDFATYYCQQYNSYSWTFGQGTKVEIKR
notes: as for B2
B10: CL-82455 (antibody, human IgG4 S228P, kappa, V domains shown)
VH: QVQLVESGGGVVQPGRSLRLSCAASGFTFNNYGMHWVRQAPGKGLEWVAVIWNDGSNKYYGDSVKGRFTISRDNSKNTLYLQMNSLRAEDTAVYYCARGGGYYGSGKHYRGYYYNGMGVWGQGTPVTVSS
VL: EIVMTQSPATLSVSPGERATLSCRASQSVSSNLAWYQQKPGQAPRLLIYGASTRATGIPARFSGSGSGTEVTLTISSLQSEDFTIYYCQQYNNWPWTFGQGTKVDIKR
B11: CL-82583 (antibody, human IgG4 S228P, kappa)
heavy: not shown
light: DIQMTQSPSSLSASVGDRVTITCRASQGVRDDLGWYQQKPGKAPKRLIYAASSLQSGVPSRFSGSGSGTEFTLTISSLQPEDFATYYCLQHNSYPFTFGPGTKVDIKRTVAAPSVFIFPPSDEQLKSGTASVVCLLNNFYPREAKVQWKVDNALQSGNSQESVTEQDSKDSTYSLSSTLTLSKADYEKHKVYACEVTHQGLSSPVTKSFNRGEC
notes: as for B2
B12: CL-82556 (antibody, human IgG4 S228P, kappa, V domains shown)
VH: QVQLVESGGGVVQPGRSLRLSCAASGFTFYSYGMHWVRQAPGKGLEWVAVIWYGGTNKYYADSVKGRFTISRDNSKNTLYLQMNSLTAEDTAVYYCARGQLERRRGGLNIWGQGTMVTVSS
VL: B3 VL with I29V, N31D, S53N, S76G, W96F, Q100P, E105D
notes: as for B2
B13: CL-82571 (antibody, human IgG4 S228P, kappa, V domains shown)
VH: EVQLVESGGGLVQPGGSLKLSCAASGFTFSGSAMHWVRQASGKGLEWVGRIRSKANKYATAYAASVKGRFTISRDDSKNTAYVQMKSLKTEDTAVYYCTWELSNYDILTGFYYGMDVWGQGTTVTVSS
VL: B9 VL with S31N, K55E, V75I, Y94F
notes: as for B2
B14: CL-82577 (antibody, human IgG4 S228P, kappa, V domains shown)
VH: QVQLQESGPGLVKPSQTLSLTCTVSGGSISSGGYYWTWIRQLPGKGLEWIGYMSYSGNTFYSPSLKSRFTISGDTSENQFSLKVNSVTSADTAIYYCARDRRIPMLRGIKGYYYGMDVWGQGTTVTVSS
VL: not shown
notes: as for B2
B15: CL-82541 (antibody, human IgG4 S228P, kappa, V domains shown)
VH: B1 VH with G33R, V42L, T59P, K79Q, R83K, T85S, F96Y, L116M
VL: not shown
notes: as for B2

biological target: T1, biotinylated CXCR4-virus like particle (Integral Molecular, Lot INT-1793B) (human, UniProt P61073 1-352, VLP biotinylated, sites not stated); assay: SPR (Biacore 8K), biotinylated CXCR4 VLP captured on SA chip, Fab as analyte, 25 C, 1:1 model
T1 construct: also called hCXCR4 VLP; CXCR4 VLP

B1 showed a Kd of 0.67 nM.

In the case of B1, the koff is reported as 0.00155 s⁻¹.

For B1, the kon was 2.32e+06 M⁻¹ s⁻¹.

biological target: T2, human CXCR4 (cell-expressed) (human, UniProt P61073 1-352); assay: cell-based or functional assay

Going from B2 to B3, the “% Max Inhibition, beta-arrestin reporter assay, Tango CXCR4-bla U2OS cells” value (from here on “% Max Inhibition … Tango CXCR4-bla U2OS cells”) rises from 89.6% to 98.9%.

Going from B4 to B5, the “% Max Inhibition … Tango CXCR4-bla U2OS cells” value rises from 98.4% to 101%.

Going from B6 to B7, the “% Max Inhibition … Tango CXCR4-bla U2OS cells” value falls from 101% to 85%.

First: B8
Second: B9
The “% Max Inhibition … Tango CXCR4-bla U2OS cells” value of the first is higher: 100% for the first, 98.2% for the second.

Compared with B10, B11 is higher in “% Max Inhibition … Tango CXCR4-bla U2OS cells” value: 86.8% for the first, 94% for the second.

Going from B12 to B13, the “% Max Inhibition … Tango CXCR4-bla U2OS cells” value falls from 101% to 85.6%.

Going from B14 to B15, the “% Max Inhibition … Tango CXCR4-bla U2OS cells” value falls from 102% to 97.2%.

First: B2
Second: B3
The “IC50, beta-arrestin reporter assay, Tango CXCR4-bla U2OS cells, 30 nM CXCL12” value (“IC50, beta-arrestin reporter assay” below) of the first is 2.5-fold lower: 0.84 nM for the first, 2.08 nM for the second.

Compared with B4, B5 is 2.7-fold higher in “IC50, beta-arrestin reporter assay” value: 0.19 nM for the first, 0.52 nM for the second.

First: B6
Second: B7
The “IC50, beta-arrestin reporter assay” value of the first is lower: 0.08 nM for the first, over 120 nM for the second.

B8 and B9 are within 1.5-fold of each other in “IC50, beta-arrestin reporter assay” value: 1.15 nM for the first, 1.56 nM for the second.

Compared with B10, B11 is 54-fold lower in “IC50, beta-arrestin reporter assay” value: 9.12 nM for the first, 0.17 nM for the second.

First: B12
Second: B13
The “IC50, beta-arrestin reporter assay” value of the first is 7.1-fold lower: 0.14 nM for the first, 1 nM for the second.

Going from B14 to B15, the “IC50, beta-arrestin reporter assay” value rises from 0.24 nM to 0.38 nM (1.6-fold).

biological target: T2, human CXCR4 (cell-expressed); assay: cell-based or functional assay; remark: another data set of the same source

Going from B2 to B3, the “% Max Inhibition, cAMP HTRF assay, CXCR4 BacMam HEK-293 cells” value (from here on “% Max Inhibition, cAMP HTRF assay”) rises from 79% to 96%.

Going from B4 to B5, the “% Max Inhibition, cAMP HTRF assay” value falls from 105% to 92%.

Going from B6 to B8, the “% Max Inhibition, cAMP HTRF assay” value rises from 87% to 90%.

Going from B9 to B10, the “% Max Inhibition, cAMP HTRF assay” value rises from 92% to 103%.

Going from B11 to B12, the “% Max Inhibition, cAMP HTRF assay” value rises from 91% to 94%.

Compared with B13, B14 is higher in “% Max Inhibition, cAMP HTRF assay” value: 88% for the first, 92% for the second.

For B15, the “% Max Inhibition, cAMP HTRF assay” value was 87%.

B2 and B3 are within 1.5-fold of each other in “IC50, cAMP HTRF assay, CXCR4 BacMam HEK-293 cells, 5.5 nM CXCL12” value (from here on “IC50, cAMP HTRF assay”): 34 nM for the first, 27 nM for the second.

First: B4
Second: B5
The “IC50, cAMP HTRF assay” value of the first is 5.2-fold lower: 19 nM for the first, 99 nM for the second.

Compared with B6, B7 is higher in “IC50, cAMP HTRF assay” value: 24 nM for the first, over 1000 nM for the second.

B8 and B9 are within 1.5-fold of each other in “IC50, cAMP HTRF assay” value: 46 nM for the first, 39 nM for the second.

First: B10
Second: B11
The “IC50, cAMP HTRF assay” value of the first is 3.2-fold higher: 91 nM for the first, 28 nM for the second.

Going from B12 to B13, the “IC50, cAMP HTRF assay” value rises from 17 nM to 44 nM (2.6-fold).

Compared with B14, B15 is 2.6-fold higher in “IC50, cAMP HTRF assay” value: 29 nM for the first, 74 nM for the second.

biological target: T3, terbium-labelled SNAP-CXCR4 on HEK-293 cells (Cisbio C1TT1CXCR4) (human, UniProt P61072 1-352 (Pan troglodytes entry), terbium label on the SNAP tag); assay: TR-FRET (Tag-lite) competition with AlexaFluor 647-CXCL12 on terbium-labelled SNAP-CXCR4 HEK-293 cells
T3 construct: Bought assay-ready cells; also called CXCR4 expressing cells; not shown: SNAP tag

First: B2
Second: B3
The “% Max Inhibition” value of the first is lower: 96% for the first, 100% for the second.

Going from B5 to B6, the “% Max Inhibition” value rises from 100% to 101%.

Compared with B7, B8 is lower in “% Max Inhibition” value: 98% for the first, 97% for the second.

B9 and B11 are the same in “% Max Inhibition” value: 98% for the first, 98% for the second.

Going from B12 to B13, the “% Max Inhibition” value falls from 99% to 96%.

Going from B14 to B15, the “% Max Inhibition” value falls from 98% to 97%.

First: B2
Second: B3
The IC50 of the first is 1.6-fold lower: 1.06 nM for the first, 1.71 nM for the second. The first is the more potent here.

First: B5
Second: B6
The IC50 of the first is 1.6-fold higher: 0.86 nM for the first, 0.55 nM for the second.

B7 and B8 are within 1.5-fold of each other in IC50: 1.2 nM for the first, 1.41 nM for the second.

Going from B9 to B11, the IC50 falls from 1.21 nM to 0.72 nM (1.7-fold). The second is the more potent here.

Going from B12 to B13, the IC50 rises from 0.7 nM to 1.47 nM (2.1-fold). The first is the more potent here.

B14 and B15 are within 1.5-fold of each other in IC50: 0.92 nM for the first, 1.16 nM for the second.
